Publication doi:10.1101/238154

Legend:
[1] = molecular target: FlAsH tagged K63-linked diubiquitin (UniProt P0CG47); experiment: fluorescence polarisation
[2] = molecular target: SAGA DUB module containing Ubp8^C146A (yeast) (UniProt P50102); experiment: ITC
[3] = molecular target: SAGA DUB module containing Ubp8^C146S (yeast) (UniProt P50102); experiment: ITC
SAGA DUB module containing Ubp8^C146S (yeast), sequence (P50102 whole entry C146S, chain 1 of 4): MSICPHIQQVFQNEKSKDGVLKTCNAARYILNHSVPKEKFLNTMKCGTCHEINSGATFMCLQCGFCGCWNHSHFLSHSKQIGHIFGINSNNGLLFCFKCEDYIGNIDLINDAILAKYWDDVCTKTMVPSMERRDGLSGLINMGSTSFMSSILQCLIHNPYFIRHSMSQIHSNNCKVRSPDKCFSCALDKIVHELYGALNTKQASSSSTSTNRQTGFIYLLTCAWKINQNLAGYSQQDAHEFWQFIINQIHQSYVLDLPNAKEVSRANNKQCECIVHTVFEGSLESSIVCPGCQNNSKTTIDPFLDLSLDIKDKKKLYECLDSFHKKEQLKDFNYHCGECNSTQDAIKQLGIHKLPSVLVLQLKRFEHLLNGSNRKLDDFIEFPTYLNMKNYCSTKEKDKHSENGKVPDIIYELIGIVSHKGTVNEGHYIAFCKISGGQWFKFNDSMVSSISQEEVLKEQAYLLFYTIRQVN
SAGA DUB module containing Ubp8^C146S (yeast), sequence (Q03067 whole entry, chain 2 of 4, further chain): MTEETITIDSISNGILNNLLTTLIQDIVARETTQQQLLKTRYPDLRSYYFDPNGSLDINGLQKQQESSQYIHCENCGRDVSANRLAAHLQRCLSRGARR
SAGA DUB module containing Ubp8^C146S (yeast), sequence (Q6WNK7 whole entry, chain 3 of 4, further chain): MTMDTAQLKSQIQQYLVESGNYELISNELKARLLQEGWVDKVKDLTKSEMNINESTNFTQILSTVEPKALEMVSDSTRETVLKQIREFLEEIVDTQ
SAGA DUB module containing Ubp8^C146S (yeast), sequence (P53165 1-96, chain 4 of 4, further chain): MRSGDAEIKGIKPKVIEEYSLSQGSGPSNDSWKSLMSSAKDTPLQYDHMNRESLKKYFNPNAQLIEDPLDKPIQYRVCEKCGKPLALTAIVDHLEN

SAGA DUB module containing Ubp8^C146A (yeast), sequence (P50102 whole entry C146A, chain 1 of 4): as the sequence (P50102 whole entry C146S, chain 1 of 4) above, with S146A counted along it
SAGA DUB module containing Ubp8^C146A (yeast), sequence (Q03067 whole entry, chain 2 of 4, further chain): as the sequence (Q03067 whole entry, chain 2 of 4, further chain) above
SAGA DUB module containing Ubp8^C146A (yeast), sequence (Q6WNK7 whole entry, chain 3 of 4, further chain): as the sequence (Q6WNK7 whole entry, chain 3 of 4, further chain) above
SAGA DUB module containing Ubp8^C146A (yeast), sequence (P53165 1-96, chain 4 of 4, further chain): as the sequence (P53165 1-96, chain 4 of 4, further chain) above

Row | Kd [1] | Kd [2] | Kd [3] | Substance
1 | 40 µM |  |  | OTUD1^C320A catalytic domain (residues 287-435) (from UniProt Q5VV17 287-435) (domain or fragment)
2 |  | 0.47 µM | 4.6 µM | K48-linked diubiquitin (from UniProt P0CG47 1-76)
